# Measurements from paper PMC9283941, “Self-activating G protein α subunits engage seven-transmembrane regulator of G protein signaling (RGS) proteins and a Rho guanine nucleotide exchange factor effector in the amoeba Naegleria fowleri” (The Journal of Biological Chemistry, 2022).
# Experiments:
# Nf Gα7 = target: T1, Nf Gα7 (Naegleria fowleri, UniProt A0A6I8WFP8); experiment: intrinsic tryptophan fluorescence (activation); assay type: binding; settings: 0.5 μM protein, 1 μM nucleotide, 10 mM MgCl2, pH 7.5, 20 °C
# T1 construct: gene NF0037180; N-terminal TEV-cleavable His6 tag; E. coli
# T1 sequence (A0A6I8WFP8 1-321): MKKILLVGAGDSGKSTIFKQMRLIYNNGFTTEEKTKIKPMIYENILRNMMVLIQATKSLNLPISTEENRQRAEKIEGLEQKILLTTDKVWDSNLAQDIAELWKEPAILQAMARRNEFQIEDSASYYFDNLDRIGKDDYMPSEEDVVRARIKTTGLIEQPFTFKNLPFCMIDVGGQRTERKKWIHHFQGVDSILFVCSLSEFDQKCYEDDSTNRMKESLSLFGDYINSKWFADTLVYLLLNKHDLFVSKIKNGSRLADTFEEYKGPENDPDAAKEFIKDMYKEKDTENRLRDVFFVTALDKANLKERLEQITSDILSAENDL
# Nf Gα5 [1] = target: T2, Nf Gα5 (Naegleria fowleri, UniProt A0A6A5BQC6); experiment: intrinsic tryptophan fluorescence (activation, return after hydrolysis); assay type: biochemical; settings: 0.5 μM protein, 1 μM nucleotide, 10 mM MgCl2, pH 7.5, 20 °C
# T2 construct: gene FDP41_003899; N-terminal TEV-cleavable His6 tag; E. coli
# T2 sequence (A0A6A5BQC6 57-394 limits assumed): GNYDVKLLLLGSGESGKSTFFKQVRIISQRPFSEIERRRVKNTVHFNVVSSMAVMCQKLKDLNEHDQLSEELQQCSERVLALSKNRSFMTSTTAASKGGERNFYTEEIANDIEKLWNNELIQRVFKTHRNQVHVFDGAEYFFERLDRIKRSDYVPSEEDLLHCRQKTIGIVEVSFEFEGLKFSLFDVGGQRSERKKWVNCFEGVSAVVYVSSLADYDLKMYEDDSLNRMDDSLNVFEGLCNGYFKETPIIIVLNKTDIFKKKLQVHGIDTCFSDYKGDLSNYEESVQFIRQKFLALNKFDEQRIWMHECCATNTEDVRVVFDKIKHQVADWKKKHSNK
# Nf Gα5 [2] = target: T2, Nf Gα5; experiment: intrinsic tryptophan fluorescence (activation); assay type: binding; settings: 0.5 μM protein, 1 μM nucleotide, 10 mM MgCl2, pH 7.5, 20 °C
# [3] = target: Naegleria fowleri G protein α subunit Nf Gα3 (Naegleria fowleri); experiment: SPR; Proteon XPR36; ~5000 RU of His6-tagged Gα subunits immobilised on a nickel-NTA chip by covalent capture coupling; RGS domains injected as analyte at 20 μl/min; 50 mM Hepes pH 7.4, 150 mM NaCl, 0.05% NP-40 alternative, 50 μM EDTA, 1 mM MgCl2; Gα in the AMF state (100 μM GDP, 20 mM NaF, 30 μM AlCl3); equilibrium binding analysis
# [4] = target: Naegleria fowleri G protein α subunit Nf Gα2 (Naegleria fowleri); experiment: as above
Kd [3],Kd [4],Compound,intrinsic tryptophan fluorescence (activation) (Nf Gα7),"intrinsic tryptophan fluorescence (activation, return after hydrolysis) (Nf Gα5 [1])",intrinsic tryptophan fluorescence (activation) (Nf Gα5 [2])
1.8 µM,,RGS domain of Naegleria fowleri seven-transmembrane RGS protein Nf 7TM RGS4 (domain or fragment),,,
0.55 µM,0.63 µM,RGS domain of Naegleria fowleri seven-transmembrane RGS protein Nf 7TM RGS2 (domain or fragment),,,

# The remaining lines, values behind:
Compound,Kd [3],Kd [4],intrinsic tryptophan fluorescence (activation) (Nf Gα7),"intrinsic tryptophan fluorescence (activation, return after hydrolysis) (Nf Gα5 [1])",intrinsic tryptophan fluorescence (activation) (Nf Gα5 [2])
Nc1nc2c(ncn2[C@@H]2O[C@H](COP(=O)(O)OP(=O)(O)OP(=O)(O)O)[C@@H](O)[C@H]2O)c(=O)[nH]1 [GTP],,,achieved the active conformation in the presence of either GppNHp or GTP,returned slowly to near-baseline levels after multiple rounds of hydrolysis and exhaustion of available GTP,
Nc1nc2c(ncn2[C@@H]2O[C@H](COP(=O)(O)OP(=O)(O)NP(=O)(O)O)[C@@H](O)[C@H]2O)c(=O)[nH]1 [GppNHp],,,achieved the active conformation in the presence of either GppNHp or GTP,,achieved the active conformation in the presence of either GppNHp or GTP
RGS domain of Naegleria fowleri Nf RGS-RhoGEF (domain or fragment),3.3 µM,2.4 µM,,,
